Here are results for seven molecules from patent publication US20210388081A1 (Memorial Sloan Kettering, published 2021).

Assay [1] concerns the target T1, Fc Receptor-like 5 (FcRL5), full length, overexpressed on 3T3 or Raji cells (human, UniProt Q96RD9 16-977).
T1 construct: also called 3T3-FcRL5
T1 sequence: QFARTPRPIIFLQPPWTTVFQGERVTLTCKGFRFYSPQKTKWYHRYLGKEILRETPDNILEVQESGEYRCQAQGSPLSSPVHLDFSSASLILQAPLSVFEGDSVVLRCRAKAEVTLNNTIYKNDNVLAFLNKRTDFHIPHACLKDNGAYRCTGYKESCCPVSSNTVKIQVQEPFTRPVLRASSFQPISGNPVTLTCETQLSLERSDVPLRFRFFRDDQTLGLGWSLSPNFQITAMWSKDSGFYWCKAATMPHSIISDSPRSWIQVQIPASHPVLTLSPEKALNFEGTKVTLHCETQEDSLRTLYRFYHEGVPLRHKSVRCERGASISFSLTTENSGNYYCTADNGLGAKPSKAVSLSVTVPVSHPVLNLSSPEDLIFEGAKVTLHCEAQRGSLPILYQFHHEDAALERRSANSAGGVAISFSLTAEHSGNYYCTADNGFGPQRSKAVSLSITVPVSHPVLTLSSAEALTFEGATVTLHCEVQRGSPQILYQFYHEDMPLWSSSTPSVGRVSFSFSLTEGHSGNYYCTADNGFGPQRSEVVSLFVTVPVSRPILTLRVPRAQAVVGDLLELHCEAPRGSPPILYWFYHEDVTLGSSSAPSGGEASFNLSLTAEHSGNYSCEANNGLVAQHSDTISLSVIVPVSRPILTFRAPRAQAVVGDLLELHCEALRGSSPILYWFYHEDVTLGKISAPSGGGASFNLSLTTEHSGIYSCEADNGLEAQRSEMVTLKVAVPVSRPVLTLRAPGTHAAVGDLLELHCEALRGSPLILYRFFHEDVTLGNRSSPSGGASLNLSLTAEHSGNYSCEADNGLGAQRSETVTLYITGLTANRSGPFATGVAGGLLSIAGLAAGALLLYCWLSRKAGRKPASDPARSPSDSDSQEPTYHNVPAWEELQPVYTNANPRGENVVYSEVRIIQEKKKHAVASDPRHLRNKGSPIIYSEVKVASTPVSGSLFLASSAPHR
Briefly: phage clone screening on cells. Put shortly: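 scFv phage clones were incubated with live 3T3 cells overexpressing full-length FcRL5, then detected with mouse anti-M13 mAb and PE-anti-mouse Ig by flow cytometry. 3T3 cells expressing FcRL1, 2, 3, 4 or 6 served as negative-control targets.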

Assay [2] has as its target T2, FcRL2, overexpressed on 3T3 cells (UniProt Q96LA5 20-508, limits assumed).
T2 construct: whole, on cells
T2 sequence (looked up): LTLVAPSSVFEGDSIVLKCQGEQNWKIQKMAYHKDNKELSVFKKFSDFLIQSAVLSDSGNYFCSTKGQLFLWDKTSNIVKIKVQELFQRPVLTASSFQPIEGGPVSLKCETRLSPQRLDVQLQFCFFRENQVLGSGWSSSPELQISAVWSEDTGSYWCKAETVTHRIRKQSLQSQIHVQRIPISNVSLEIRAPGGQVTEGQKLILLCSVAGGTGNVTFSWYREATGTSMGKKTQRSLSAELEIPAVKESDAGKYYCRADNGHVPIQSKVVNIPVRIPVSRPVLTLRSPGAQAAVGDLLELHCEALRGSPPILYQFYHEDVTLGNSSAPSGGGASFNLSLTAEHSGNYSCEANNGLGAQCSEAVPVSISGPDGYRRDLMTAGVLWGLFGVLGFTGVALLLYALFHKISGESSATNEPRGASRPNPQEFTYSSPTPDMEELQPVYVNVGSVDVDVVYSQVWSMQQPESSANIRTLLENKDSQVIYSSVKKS
Briefly: phage clone on 3T3-FcRL2 cells.

The target in assay [3] is T3, FcRL6, overexpressed on 3T3 cells (UniProt Q6DN72 20-434, limits assumed).
T3 construct: whole, on cells
T3 sequence (looked up): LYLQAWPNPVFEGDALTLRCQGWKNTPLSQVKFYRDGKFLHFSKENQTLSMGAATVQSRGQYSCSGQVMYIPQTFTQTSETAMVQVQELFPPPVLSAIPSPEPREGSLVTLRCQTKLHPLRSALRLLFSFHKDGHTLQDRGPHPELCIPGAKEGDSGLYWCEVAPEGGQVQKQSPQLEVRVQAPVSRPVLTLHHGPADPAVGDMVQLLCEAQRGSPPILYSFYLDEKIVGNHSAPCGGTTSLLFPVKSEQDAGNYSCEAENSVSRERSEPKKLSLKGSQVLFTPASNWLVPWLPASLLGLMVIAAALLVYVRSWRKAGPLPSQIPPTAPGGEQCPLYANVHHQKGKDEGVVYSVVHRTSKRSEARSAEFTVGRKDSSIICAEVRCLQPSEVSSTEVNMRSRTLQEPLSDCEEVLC
Briefly: phage clone on 3T3-FcRL6 cells.

Assay [4] has as its target T4, FcRL3, overexpressed on 3T3 cells (UniProt Q96P31 18-734, limits assumed).
T4 construct: whole, on cells
T4 sequence (looked up): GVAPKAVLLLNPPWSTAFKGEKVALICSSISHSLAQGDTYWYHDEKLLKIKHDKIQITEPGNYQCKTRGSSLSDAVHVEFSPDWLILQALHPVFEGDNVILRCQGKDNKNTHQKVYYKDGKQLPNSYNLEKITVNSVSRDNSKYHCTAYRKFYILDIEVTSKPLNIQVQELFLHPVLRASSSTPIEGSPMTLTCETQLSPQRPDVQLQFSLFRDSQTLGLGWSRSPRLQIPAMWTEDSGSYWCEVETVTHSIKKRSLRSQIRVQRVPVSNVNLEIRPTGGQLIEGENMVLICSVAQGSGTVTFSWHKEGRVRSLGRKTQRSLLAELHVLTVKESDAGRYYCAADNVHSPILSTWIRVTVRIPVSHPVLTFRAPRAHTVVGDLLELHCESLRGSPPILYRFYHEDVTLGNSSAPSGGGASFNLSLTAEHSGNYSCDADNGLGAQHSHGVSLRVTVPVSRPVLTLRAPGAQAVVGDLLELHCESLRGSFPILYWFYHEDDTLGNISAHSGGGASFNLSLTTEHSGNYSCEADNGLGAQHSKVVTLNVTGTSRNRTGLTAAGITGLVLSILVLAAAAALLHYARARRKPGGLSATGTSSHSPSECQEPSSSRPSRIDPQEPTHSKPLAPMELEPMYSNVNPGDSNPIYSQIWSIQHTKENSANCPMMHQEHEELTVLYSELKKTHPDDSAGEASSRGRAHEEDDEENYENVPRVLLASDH
The assay can be described thus: phage clone on 3T3-FcRL3 cells.

In the next assay the target is SLAMF9 protein (UniProt Q96A28 19-236, limits assumed). The assay can be described thus: phage clone on SLAMF9 protein.
SLAMF9 protein, sequence (Q96A28 19-236 limits assumed): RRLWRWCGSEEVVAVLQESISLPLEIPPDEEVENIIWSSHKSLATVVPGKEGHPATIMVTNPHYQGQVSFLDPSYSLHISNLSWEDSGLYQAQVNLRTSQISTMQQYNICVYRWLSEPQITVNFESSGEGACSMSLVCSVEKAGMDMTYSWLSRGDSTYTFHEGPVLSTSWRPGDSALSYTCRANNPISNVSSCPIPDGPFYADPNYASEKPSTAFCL

B1: ET200-008 (scFv)
scFv: QSALTQPASVSGSPGQSITISCTGTSSDVGGYNYVSWYQQHPGKAPKLMIYDVSNRPSGVSNRFSGSKSGNTASLTISGLQAEDEADYYCSSYTSSSTSKVFGGGTKLTVLGSRGGGGSGGGGSGGGGSLEMAEVQLVESGGGVVRPGGSLRLSCAASGFTFGDYGMSWVRQAPGKGLEWVSGINWNGGSTGYADSVKGRFTISRDNAKNSLYLQMNSLRAEDTAVYYCARSKYNFHVYYDYWGQGTLVTVSSTSGQAGQHHHHHHGAYPYDVPDYAS
notes: screened as phage clone; entry is VL-linker-VH-His tag-HA tag
As for B1, the binding result in assay [1] is listed as “binds”; in assay [2], “no binding”; in assay [3], “no binding”; in assay [4] it was “no binding”; with SLAMF9 protein it was “no binding”.

B2: ET200-125 (scFv)
scFv: NFMLTQPHAVSESPGKTVTISCTRSSGSIASNYVQWYQQRPGSSPRTVIYEDNQRPSGVPGRFSGSIDSSSNSASLTISGLKTEDEADYYCQSYDSTSVLFGGGTKLTVLGSRGGGGSGGGGSGGGGSLEMAEVQLVQSGAEVKKPGSSVKVSCKASGGTFSSNSLSWVRQAPGQGLEWMGRIFPILGITNYAQKFQGRVTITADKSTSTAYMELSSLRSEDTAVYYCARGNYQWYDAFDIWGQGTMVTVSSTSGQAGQHHHHHHGAYPYDVPDYAS
notes: as for B1
On to B2, for which the binding result in assay [1] was “binds”; in assay [2], “no binding”; in assay [3], “no binding”; in assay [4] it was “no binding”; in the assay with SLAMF9 protein it was “no binding”.

B3: ET200-123 (scFv)
scFv: QAVLTQPPSASGTPGQRVTISCSGSSSNIGSNTVNWYQQLPGTAPKLLMYNNDQRPSGVPDRFSGSKSGTSASLAISGLQSEDEADYYCAAWDDSLNGYVFGPGTKVTVLGSRGGGGSGGGGSGGGGSLEMAQVQLVESGAEVKKPGASVKVSCKASGYTFTSYGISWVRQAPGQGLEWMGWISAYNGNTNYAQKLQGRVTMTTDTSTSTAYMELRSLRSDDTAVYYCARDLSRGANPHYYYYYGMDVWGQGTTVTVSSTSGQAGQHHHHHHGAYPYDVPDYAS
notes: as for B1
For B3, the binding result in assay [1] was “binds”; in assay [2], “no binding”; in assay [3] it was “no binding”; in assay [4] it was “no binding”; with SLAMF9 protein, “no binding”.

B4: ET200-116 (scFv)
scFv: QPVLTQPPSVSVSPGQTAAIPCSGDKLGDKFASWYQQKPGQSPVLVIYQDTKRPSGIPERFSGSNSGNTATLTISGTQAMDEADYYCQTWASGIVVFGGGTKLTVLGSRGGGGSGGGGSGGGGSLEMAQVQLQQSGPGLVKPSQTLSLTCAISGDSVSSNSAAWNWIRQSPSRGLEWLGRTYYRSKWYNDYAVSVKSRITINPDTSKNQFSLQLNSVTPEDTAVYYCARERSGWKGFDYWGQGTLVTVSSTSGQAGQHHHHHHGAYPYDVPDYAS
notes: as for B1
As for B4, the binding result in assay [1] is “binds”; in assay [2], “no binding”; in assay [3] it was “no binding”; in assay [4], “no binding”; with SLAMF9 protein it was “no binding”.

B5: ET200-121 (scFv)
scFv: QSVLTQPPSVSGAPGQRVTVSCTGSRSNIGAGYDVHWYQQLPGTAPKLLIYGNSNRPPGVPDRFSGSKSGTSASLVITGLQAEDAADYYCQSYDNTVRESPYVFGTGTKVTVLGSRGGGGSGGGGSGGGGSLEMAEVQLVQSGAEVKKPGASVKVSCKVSGYTLTELSMHWVRQAPGKGLEWMGGFDPEDGETIYAQKFQGRVTMTEDTSTDTAYMELSSLRSEDTAVYYCATESNLVSRHYYYYGMDVWGQGTTVTVSSTSGQAGQHHHHHHGAYPYDVPDYAS
notes: as for B1
For the molecule B5, the binding result in assay [1] is reported as “binds”; in assay [2] it was “no binding”; in assay [3], “no binding”; in assay [4] it was “no binding”; with SLAMF9 protein, “no binding”.

B6: ET200-118 (scFv)
scFv: QAVLTQPASVSGSPGQSITISCTGTSSDVGGYNYVSWYQQHPGKAPKLMIYEVSNRPSGVSNRFSGSKSGNTASLTISGLQAEDEADYYCSSYTSSSTPYVFGAGTKVTVLGSRGGGGSGGGGSGGGGSLEMAEVQLVESGGGLVQPGRSLRLSCAASGFTFDDYAMHWVRQAPGKGLEWVSGISWNSGSIGYADSVKGRFTISRDNAKNSLYLQMNSLRAEDTALYYCAKARWTAVASDHHFDYWGQGTLVTVSSTSGQAGQHHHHHHGAYPYDVPDYAS
notes: as for B1
For B6, the binding result in assay [1] is “binds”; in assay [2], “no binding”; in assay [3], “no binding”; in assay [4] it was “no binding”; with SLAMF9 protein, “no binding”.

B7: ET200-115 (scFv)
scFv: QSVLTQPPSVSGAPGQRVTISCTGSSSNIGARYDVHWYQQLPGTAPRLLISANYDRPSGVPDRFSGSKSGTSASLAITGLQAEDEADYYCQSYDSSVSAWVFGGGTKVTVLGSRGGGGSGGGGSGGGGSLEMAEVQLVQSGAEVKEPGASVRISCQASGYNFISYYMHWVRQAPGQGLEWMGTINPGSGETDYSQKLQGRVTMTRDPSTGTFDMGLSSLTSGDTAVYYCATGLIRGASDAFNIWGRGTMVTVSSTSGQAGQHHHHHHGAYPYDVPDYAS
notes: as for B1
Take B7: the binding result in assay [1] is “binds”; in assay [2], “no binding”; in assay [3] it was “no binding”; in assay [4], “no binding”; with SLAMF9 protein, “no binding”.
